Test results reported in PMC6713497, “Dimeric structures of quinol-dependent nitric oxide reductases (qNORs) revealed by cryo–electron microscopy” (Science Advances, 2019).

Target: the molecule itself
Test: cryo-EM structure; single-particle cryo-EM of detergent-solubilised qNOR-BRIL (50 mM tris, 150 mM NaCl, 0.05% DTM; wild type pH 7.0 at 3 mg/ml, Val495Ala pH 7.5 at 5 mg/ml), C2 symmetry imposed

B1: AxqNOR-BRIL (quinol-dependent nitric oxide reductase from Alcaligenes xylosoxidans fused with apocytochrome b562) (enzyme)
chain: not shown
  stoichiometry N: 2
